{
  "source": "patent US20260103686A1",
  "about": "“MICROBIAL STRAIN, PROTEIN, AND METHOD FOR PRODUCING GALLIC ACID USING MICROBIAL STRAIN OR PROTEIN” (UNIVERSITY OF TSUKUBA, priority 2022, published 2026)",
  "test_system": "O=C(O)c1ccc(O)c(O)c1",
  "experiment": "purified protein, by the assay type",
  "conditions": "other: PCA substrate, 200 µM NADPH, 10 µM FAD, pH 7.9, 25° C., 340 nm",
  "procedure": "The cell-free extracts were subjected to a HisTrap HP column (GE healthcare) which was equilibrated with an equilibration buffer (20 mM Tris-HCl buffer (pH 7.9), 20 mM imidazole), and then fractions eluted with an eluent (20 mM Tris-HCl buffer (pH 7.9), 500 mM imidazole) were collected.\nThe protein concentrations of the purified enzyme liquids were measured using Bio-Rad Protein Assay Dye Reagent Concentrate (Bio-Rad, USA), and the purified enzyme liquids were diluted to 1 of mg/mL with a buffer. Thus, purified enzyme liquids protocatechuic acid 5-hydroxylases, HgPobA, HyPobA, PoPobA, HgPobA-TY and PaPobA, were prepared.\nUsing the purified enzyme liquids of HgPobA, HgPobA-TY, PoPobA, HyPobA and PaPobA described above, a reaction kinetic analysis was conducted.",
  "data": [
    {"substance": "Pseudomonas aeruginosa-derived PobA (PaPobA), p-hydroxybenzoate hydroxylase, wild type, SEQ ID NO: 28 (Pseudomonas aeruginosa PAO1)", "values": [
      {"measurement": "Km", "result": 140, "unit": "µM"}
    ]}
  ]
}
